One test has as its target human PD-L1 (human) (UniProt Q9NZQ7). The experiment in a line: cell binding assay (CBA), PE-labeled PD-1-Ig on cells over-expressing human PD-L1; cluster 3 = IC50 0.07431 to >10 uM or not done.
Test [1] deals with hPDL1(19-239)-TVMV-His (human) (UniProt Q9NZQ7). The experiment in a line: HTRF competition of PD-1-Ig binding to PD-L1-His; cluster 3 = IC50 0.03045 to >10 uM or not done. (In TR-FRET formats the signal depends on donor and acceptor labels being close together.)

Positions of bridges follow the written chain, without caps; N, C: chain ends. Non-standard residues stand in square brackets, D forms with d. Phe(F5) = N[C@@H](Cc1c(F)c(F)c(F)c(F)c1F)C(=O)O; NMeF = CN[C@@H](Cc1ccccc1)C(=O)O; NMeNle = CCCC[C@H](NC)C(=O)O; Sar = CNCC(=O)O

These results are taken from US20140294898A1.

hPDL1(19-239)-TVMV-His (human), sequence (Q9NZQ7 other isoform, or with tags, fused parts or gaps limits assumed): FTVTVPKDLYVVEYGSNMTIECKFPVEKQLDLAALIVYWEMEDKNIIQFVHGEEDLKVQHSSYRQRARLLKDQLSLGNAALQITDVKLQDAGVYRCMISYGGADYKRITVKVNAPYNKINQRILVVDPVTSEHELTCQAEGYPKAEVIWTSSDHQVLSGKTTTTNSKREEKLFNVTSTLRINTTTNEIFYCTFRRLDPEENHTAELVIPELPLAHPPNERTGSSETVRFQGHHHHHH
human PD-L1 (human), sequence (Q9NZQ7 19-290): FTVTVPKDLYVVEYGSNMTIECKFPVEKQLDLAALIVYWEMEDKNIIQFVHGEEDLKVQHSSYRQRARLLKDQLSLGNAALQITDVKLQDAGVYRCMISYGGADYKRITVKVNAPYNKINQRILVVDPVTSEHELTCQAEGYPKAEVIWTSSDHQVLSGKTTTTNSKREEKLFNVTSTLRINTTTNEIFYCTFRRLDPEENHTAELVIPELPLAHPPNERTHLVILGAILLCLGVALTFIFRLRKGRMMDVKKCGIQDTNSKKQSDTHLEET

B1: Example 3078 (peptide)
peptide: {CH2CO}-[Phe(F5)][NMeF][NMeNle][Sar]DV[NMeF]Y[Sar]WYLCG-NH2
modifications: thioether N-13
SMILES: CCCC[C@H]1C(=O)N(C)CC(=O)N[C@@H](CC(=O)O)C(=O)N[C@@H](C(C)C)C(=O)N(C)[C@@H](Cc2ccccc2)C(=O)N[C@@H](Cc2ccc(O)cc2)C(=O)N(C)CC(=O)N[C@@H](Cc2c[nH]c3ccccc23)C(=O)N[C@@H](Cc2ccc(O)cc2)C(=O)N[C@@H](CC(C)C)C(=O)N[C@H](C(=O)NCC(N)=O)CSCC(=O)N[C@@H](Cc2c(F)c(F)c(F)c(F)c2F)C(=O)N(C)[C@@H](Cc2ccccc2)C(=O)N1C
On to B1, for which the CBA IC50 cluster with human PD-L1 (human) was 3 cluster. The same molecule yielded an HTRF IC50 cluster in test [1] of 3 cluster.
